This note sets out measurements from patent publication US20110123532A1 (ONCOMED PHARMACEUTICALS, published 2011).

The target in test [1] is T1, human VEGF (human, UniProt P15692-4 27-191).
T1 construct: Immobilised on a CM5 chip for Biacore; the same name is used for the rhVEGF of the HUVEC assay; also called hVEGF; rhVEGF
The test is described as follows: SPR (Biacore), VEGF surface. (In general: Surface plasmon resonance follows binding to a sensor surface in real time, without labels.)

The target in test [2] is T1, human VEGF. Description: SPR (Biacore), VEGF surface; reference 219R0302 IgG.

T1 sequence (P15692 other isoform, or with tags, fused parts or gaps limits assumed): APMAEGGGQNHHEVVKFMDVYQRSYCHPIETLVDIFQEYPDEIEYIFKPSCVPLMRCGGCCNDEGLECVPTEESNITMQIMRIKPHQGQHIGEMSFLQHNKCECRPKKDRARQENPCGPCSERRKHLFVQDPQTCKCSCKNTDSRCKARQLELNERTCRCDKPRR

B1: 219R0302-21M18 single gene bispecific antibody (SGBSP) (bispecific antibody, human IgG2, kappa)
chain 1: not shown
chain 2: DIVMTQSPDSLAVSLGERATISCRASESVDNYGISFMKWFQQKPGQPPKLLIYAASNQGSGVPDRFSGSGSGTDFTLTISSLQAEDVAVYYCQQSKEVPWTFGGGTKVEIKRTVAAPSVFIFPPSDEQLKSGTASVVCLLNNFYPREAKVQWKVDNALQSGNSQESVTEQDSKDSTYSLSSTLTLSKADYEKHKVYACEVTHQGLSSPVTKSFNRGECGGGGSGGGGSGGGGSGGGGSGGGGSGGGGSQVQLVQSGAEVKKPGASVKISCKASGYSFTAYYIHWVKQAPGQGLEWIGYISSYNGATNYNQKFKGRVTFTTDTSTSTAYMELRSLRSDDTAVYYCARDYDYDVGMDYWGQGTLVTVSSASTKGPSVFPLAPCSRSTSESTAALGCLVKDYFPEPVTVSWNSGALTSGVHTFPAVLQSSGLYSLSSVVTVPSSNFGTQTYTCNVDHKPSNTKVDKTVERKCCVECPPCPAPPVAGPSVFLFPPKPKDTLMISRTPEVTCVVVDVSHEDPEVQFNWYVDGVEVHNAKTKPREEQFNSTFRVVSVLTVVHQDWLNGKEYKCKVSNKGLPAPIEKTISKTKGQPREPQVYTLPPSREEMTKNQVSLTCLVEGFYPSDIAVEWESNGQPENNYKTTPPMLDSDGSFFLYSELTVDKSRWQQGNVFSCSVMHEALHNHYTQKSLSLSPGK
notes: Heterodimer of two single-gene chains, anti-VEGF arm (13A) and anti-DLL4 arm (13B), IgG2; also called 219R0302_21M18 SGBSP; 219R0302-21M18 SGBSP
For the molecule B1, in the test with human VEGF [1], the Kd (in general, the constant that tells how readily two partners part at equilibrium) was 7.6 nM. Also, the “fold weaker binding affinity than 219R0302” value in the test with human VEGF [2] is roughly 4 fold.
